Assay results: PMC8533642 (Journal of medicinal chemistry, 2021)
Square brackets hold non-standard residues; d marks the D form. Peptide text beside a SMILES is read from it. dPhe(4-I) = N[C@H](Cc1ccc(I)cc1)C(=O)O; 2Nal = N[C@@H](Cc1ccc2ccccc2c1)C(=O)O; d2Nal = N[C@H](Cc1ccc2ccccc2c1)C(=O)O

Legend:
mMC1R = mMC1R (Mus musculus, UniProt Q01727); test: AlphaScreen cAMP agonist assay, HEK293 cells stably expressing mMC1R; format: cell-based; conditions: full agonist = 90% of maximal NDP-MSH signal
[1] = biological target: mouse melanocortin-4 receptor (mouse) (UniProt P56450)
Chain of mouse melanocortin-4 receptor (mouse) (P56450 whole entry): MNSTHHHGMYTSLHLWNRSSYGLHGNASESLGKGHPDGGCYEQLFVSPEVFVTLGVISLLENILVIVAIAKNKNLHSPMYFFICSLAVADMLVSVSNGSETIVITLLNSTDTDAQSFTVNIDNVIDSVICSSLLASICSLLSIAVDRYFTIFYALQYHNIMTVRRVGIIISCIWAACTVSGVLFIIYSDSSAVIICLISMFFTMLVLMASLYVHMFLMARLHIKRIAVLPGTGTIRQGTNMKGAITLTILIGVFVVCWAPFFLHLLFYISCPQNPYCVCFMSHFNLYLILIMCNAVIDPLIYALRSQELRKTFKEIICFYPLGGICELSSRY

[2] = biological target: mouse melanocortin-3 receptor (mouse) (UniProt P33033)
Chain of mouse melanocortin-3 receptor (mouse) (P33033 whole entry): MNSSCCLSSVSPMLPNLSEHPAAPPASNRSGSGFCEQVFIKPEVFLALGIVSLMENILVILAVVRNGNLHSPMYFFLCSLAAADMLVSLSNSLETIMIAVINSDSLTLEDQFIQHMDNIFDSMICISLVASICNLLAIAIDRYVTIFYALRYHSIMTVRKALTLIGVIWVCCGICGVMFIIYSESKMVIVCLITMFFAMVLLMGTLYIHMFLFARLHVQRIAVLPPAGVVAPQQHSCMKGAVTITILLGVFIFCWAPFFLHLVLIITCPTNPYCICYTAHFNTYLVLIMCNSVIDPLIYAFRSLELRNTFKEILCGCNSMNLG

[3] = biological target: mouse melanocortin-4 receptor (mouse) (UniProt P56450); remark: listed apart in the source
[4] = biological target: mouse melanocortin-5 receptor (mouse) (UniProt P41149)
Chain of mouse melanocortin-5 receptor (mouse) (P41149 whole entry): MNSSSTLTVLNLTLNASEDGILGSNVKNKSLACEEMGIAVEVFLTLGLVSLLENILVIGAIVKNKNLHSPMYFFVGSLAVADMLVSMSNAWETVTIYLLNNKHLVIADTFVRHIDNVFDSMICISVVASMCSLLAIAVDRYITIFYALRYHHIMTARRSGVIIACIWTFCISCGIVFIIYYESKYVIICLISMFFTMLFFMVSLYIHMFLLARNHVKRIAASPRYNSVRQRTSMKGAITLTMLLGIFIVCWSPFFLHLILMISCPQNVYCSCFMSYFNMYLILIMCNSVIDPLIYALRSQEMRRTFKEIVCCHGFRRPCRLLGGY

[5] = biological target: mouse melanocortin-3 receptor (mouse) (UniProt P33033); remark: listed apart in the source
[6] = biological target: mouse melanocortin-1 receptor (mouse) (UniProt Q01727)
Chain of mouse melanocortin-1 receptor (mouse) (Q01727 whole entry): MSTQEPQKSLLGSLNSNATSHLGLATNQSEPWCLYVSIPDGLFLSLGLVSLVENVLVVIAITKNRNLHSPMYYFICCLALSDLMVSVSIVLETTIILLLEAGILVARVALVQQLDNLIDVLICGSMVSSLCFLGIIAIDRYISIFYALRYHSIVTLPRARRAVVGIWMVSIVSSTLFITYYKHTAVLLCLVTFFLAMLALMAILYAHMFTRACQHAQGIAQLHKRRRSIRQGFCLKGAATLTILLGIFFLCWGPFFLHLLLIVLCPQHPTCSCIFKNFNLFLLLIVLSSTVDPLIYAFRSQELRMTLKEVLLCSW

Chain of mMC1R (Q01727 whole entry): as above

Molecule | mMC1R agonist activity in words (mMC1R) | pA2, antagonism of NDP-MSH at mMC4R, Schild analysis, cAMP AlphaScreen [1] | pA2, antagonism of NDP-MSH at mMC3R, Schild analysis, cAMP AlphaScreen [2] | agonist EC50, cAMP AlphaScreen [3] | agonist EC50, cAMP AlphaScreen [4] | agonist EC50, cAMP AlphaScreen [5] | % receptor activation relative to NDP-MSH (partial agonist), cAMP AlphaScreen [6] | apparent EC50 (partial agonist), cAMP AlphaScreen [6] | % of maximal NDP-MSH response at 100 μM, cAMP AlphaScreen [3] | % of maximal NDP-MSH response at 100 μM, cAMP AlphaScreen [4] | % of maximal NDP-MSH response at 100 μM, cAMP AlphaScreen [5] | agonist EC50, cAMP AlphaScreen [6] | % of maximal NDP-MSH response at 100 μM, cAMP AlphaScreen [6] | antagonist Ki = 10^-(pA2), NDP-MSH at mMC4R, cAMP AlphaScreen [1] | antagonist Ki = 10^-(pA2), NDP-MSH at mMC3R, cAMP AlphaScreen [2]
CC(=O)N[C@H](Cc1ccc2ccccc2c1)C(=O)N[C@@H](CCCNC(=N)N)C(=O)N[C@H](Cc1ccc(I)cc1)C(=O)N[C@H](CCCCN)C(N)=O [Peptide 19, Ac-DNal(2’)-Arg-DPhe(pI)-DLys-NH2] | full agonist activity |  |  |  |  |  |  |  |  |  |  |  |  |  | 
Ac-DNal(2’)-Arg-DNal(2’)-DNal(2’)-NH2 (peptide) |  | 6.3 | 5.7 |  |  |  | 85% | 5 µM | 45% | 20% | 50% |  |  |  | 
Ac-DNal(2’)-Arg-DPhe(pI)-Arg-NH2 (peptide) |  | 8.6 | 7.1 | > 100 µM | > 100 µM | > 100 µM |  |  |  |  |  | 0.04 µM |  |  | 
Ac-DNal(2’)-Arg-DPhe(pI)-DLys-NH2 (peptide) |  | 8.5 | 6.9 | > 100 µM | > 100 µM | > 100 µM |  |  |  |  |  | 0.22 µM |  |  | 
Ac-DNal(2’)-DNal(2’)-DPhe(pI)-Arg-NH2 (peptide) |  | < 5.5 | < 5.5 | > 100 µM |  | > 100 µM |  |  |  |  |  |  | 25% |  | 
Ac-DNal(2’)-DNal(2’)-Trp-DLys-NH2 (peptide) |  | 6.7 | 5.8 |  | > 100 µM | > 100 µM |  |  | 30% |  |  |  | 25% | 200 nM | 1600 nM
Ac-DPhe(pI)-Arg-DNal(2’)-Arg-NH2 (peptide) |  | 8.3 | 6.9 | > 100 µM | > 100 µM | > 100 µM | 65% | 0.4 µM |  |  |  |  |  |  | 
Ac-DPhe(pI)-Arg-DNal(2’)-DLys-NH2 (peptide) |  | 8.6 | 7.2 | > 100 µM | > 100 µM | > 100 µM | 30% | 3.5 µM |  |  |  |  |  |  | 
Ac-DPhe(pI)-Arg-DPhe(pI)-DNal(2’)-NH2 (peptide) |  | 6.6 | 6.3 |  |  |  |  |  | 40% | 65% | 40% | 1.1 µM |  |  | 
Ac-[d2Nal]RW[dK]-NH2 |  | 7.7 | 5.5 | > 100 µM | > 100 µM | > 100 µM |  |  |  |  |  | > 100 µM |  |  | 
Ac-[d2Nal]R[2Nal][dK]-NH2 |  | 7.8 | 6.2 | > 100 µM | > 100 µM | > 100 µM | 50% | 3.3 µM |  |  |  |  |  |  | 
Ac-[dPhe(4-I)]R[2Nal][dK]-NH2 |  |  | 6.8 | > 100 µM | > 100 µM | > 100 µM |  |  |  |  |  | > 100 µM |  |  | 
Ac-[dPhe(4-I)]RW[dK]-NH2 (SMILES CC(=O)N[C@H](Cc1ccc(I)cc1)C(=O)N[C@@H](CCCNC(=N)N)C(=O)N[C@@H](Cc1c[nH]c2ccccc12)C(=O)N[C@H](CCCCN)C(N)=O) [Ac-DPhe(pI)-Arg-Trp-DLys-NH2] |  | 7.6 | 6.2 | > 100 µM | > 100 µM | > 100 µM |  |  |  |  |  | > 100 µM |  |  | 
Ac-[dPhe(4-I)]R[dPhe(4-I)]R-NH2 (SMILES CC(=O)N[C@H](Cc1ccc(I)cc1)C(=O)N[C@@H](CCCNC(=N)N)C(=O)N[C@H](Cc1ccc(I)cc1)C(=O)N[C@@H](CCCNC(=N)N)C(N)=O) [Ac-DPhe(pI)-Arg-DPhe(pI)-Arg-NH2] |  | 8.5 | 7.4 | > 100 µM | > 100 µM | > 100 µM |  |  |  |  |  | 0.007 µM |  |  | 
Ac-[dPhe(4-I)]RWR-NH2 (SMILES CC(=O)N[C@H](Cc1ccc(I)cc1)C(=O)N[C@@H](CCCNC(=N)N)C(=O)N[C@@H](Cc1c[nH]c2ccccc12)C(=O)N[C@@H](CCCNC(=N)N)C(N)=O) [Ac-DPhe(pI)-Arg-Trp-Arg-NH2] |  | 8.7 | 7.4 | > 100 µM | > 100 µM |  | 50% | 7.9 µM |  |  | 25% |  |  |  | 

Results, then the molecule that gave them:

mMC1R agonist activity in words (mMC1R) | pA2, antagonism of NDP-MSH at mMC4R, Schild analysis, cAMP AlphaScreen [1] | pA2, antagonism of NDP-MSH at mMC3R, Schild analysis, cAMP AlphaScreen [2] | agonist EC50, cAMP AlphaScreen [3] | agonist EC50, cAMP AlphaScreen [4] | agonist EC50, cAMP AlphaScreen [5] | % receptor activation relative to NDP-MSH (partial agonist), cAMP AlphaScreen [6] | apparent EC50 (partial agonist), cAMP AlphaScreen [6] | % of maximal NDP-MSH response at 100 μM, cAMP AlphaScreen [3] | % of maximal NDP-MSH response at 100 μM, cAMP AlphaScreen [4] | % of maximal NDP-MSH response at 100 μM, cAMP AlphaScreen [5] | agonist EC50, cAMP AlphaScreen [6] | % of maximal NDP-MSH response at 100 μM, cAMP AlphaScreen [6] | antagonist Ki = 10^-(pA2), NDP-MSH at mMC4R, cAMP AlphaScreen [1] | antagonist Ki = 10^-(pA2), NDP-MSH at mMC3R, cAMP AlphaScreen [2] | Molecule
full agonist activity |  |  |  |  |  |  |  |  |  |  |  |  |  |  | CC(=O)N[C@H](Cc1ccc2ccccc2c1)C(=O)N[C@@H](CCCNC(=N)N)C(=O)N[C@H](Cc1ccc(I)cc1)C(=O)N[C@@H](CCCNC(=N)N)C(N)=O [Peptide 21, Ac-DNal(2’)-Arg-DPhe(pI)-Arg-NH2] (Ac-[d2Nal]R[dPhe(4-I)]R-NH2)
 | 8.3 | 6.1 | > 100 µM | > 100 µM | > 100 µM | 60% | 1 µM |  |  |  |  |  |  |  | Ac-DNal(2’)-Arg-DNal(2’)-Arg-NH2 (peptide)
 | 6.5 | 6.1 |  |  |  |  |  | 30% | 40% | 40% |  |  |  |  | Ac-DNal(2’)-Arg-DPhe(pI)-DNal(2’)-NH2 (peptide)
 | < 5.5 | < 5.5 |  | 0.13 µM |  |  |  | 25% |  | 35% |  | 30% |  |  | Ac-DNal(2’)-DNal(2’)-DNal(2’)-Arg-NH2 (peptide)
 | < 5.5 | < 5.5 | > 100 µM | > 100 µM | > 100 µM |  |  |  |  |  |  | 55% |  |  | Ac-DNal(2’)-DNal(2’)-DNal(2’)-DLys-NH2 (peptide)
 | < 5.5 | < 5.5 | > 100 µM | > 100 µM | > 100 µM |  |  |  |  |  |  | 20% |  |  | Ac-DNal(2’)-DNal(2’)-DPhe(pI)-DLys-NH2 (peptide)
 | 6.7 | 6.1 |  |  |  |  |  | 45% | 20% | 45% |  | 80% |  |  | Ac-DPhe(pI)-Arg-DNal(2’)-DNal(2’)-NH2 (peptide)
 | 6.6 | 5.7 | > 100 µM | > 100 µM | > 100 µM |  |  |  |  |  |  | 65% |  |  | Ac-DPhe(pI)-DNal(2’)-Trp-DLys-NH2 (peptide)
 | 8.3 | 6.8 |  | > 100 µM | > 100 µM |  |  | 20% |  |  |  | 40% |  |  | Ac-[d2Nal]RWR-NH2
 | < 5.5 | < 5.5 |  |  |  |  |  | 60% | 45% | 35% |  | 45% |  |  | Ac-[d2Nal][d2Nal]WR-NH2
 |  | 7.8 |  | > 100 µM | > 100 µM |  |  | 25% |  |  |  | 25% | 1 nM |  | Ac-[dPhe(4-I)]R[2Nal]R-NH2
 | 8.5 | 7.5 | > 100 µM | > 100 µM | > 100 µM |  |  |  |  |  | 0.035 µM |  |  |  | Ac-[dPhe(4-I)]R[dPhe(4-I)][dK]-NH2 (SMILES CC(=O)N[C@H](Cc1ccc(I)cc1)C(=O)N[C@@H](CCCNC(=N)N)C(=O)N[C@H](Cc1ccc(I)cc1)C(=O)N[C@H](CCCCN)C(N)=O) [Ac-DPhe(pI)-Arg-DPhe(pI)-DLys-NH2]
